Experimental data taken from article doi:10.1101/2023.07.27.550818 (bioRxiv, 2023).

Molecular target: the molecule itself
Test: crystal structure

B1: PcaR (natural protein, P. putida, UniProt Q52154 1-291, looked up)
chain: MSDETLVNDPVNPEPARPASAAMAPPIVASPAKRIQAFTGDPDFMTSLARGLAVIQAFQERKRHLTIAQISHRTEIPRAAVRRCLHTLIKLGYATSDGRTYSLLPKVLTLGHAYLSSTPLAISAQPYLDRISDQLHEAANMATLEGDDILYIARSATVERLISVDLSVGGRLPAYCTSMGRILLAAMDDTSLREYLGRADLKARTSRTLHDPESLFACIQQVRAQGWCVVDQELEQGLRSIAVPIYDASGQVLAALNVSTHVGRVTRSELEQRFLPILLAASRDLCHQLFG
  binding result: binds
